According to the supplement of paper PMC12042874:
± gives the uncertainty stated by the source.

assay: amyloid nucleation score (Sup35N fusion, yeast selection) (log enrichment); library NNK2; higher = more nucleation; inactive = no reads after selection
Procedure, shortened: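 DiMSum was used to calculate nucleation scores as log enrichment of output over input reads, centred on the mode score of non-aggregating sequences. Sequences with fewer than 100 input reads were not scored. Input and output came from Illumina sequencing of plasmid inserts in psi-negative yeast expressing peptides of 20 random codons fused to Sup35N, induced 24 hours with 100 μM copper sulfate and then grown 7 days at 30°C on medium lacking adenine and uracil.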

Substance | amyloid nucleation score
AFELSVTLCSTEMLQHRCIG | -0.081 ± 1.1
HVSTSLYTIGSSVSWGMFQG | 0.897 ± 0.47
YHSWVGFIRYPIISWGRMMG | inactive
TVTRLSYGMFHQRNRVC | -0.267 ± 0.45
ILMRSYDFALGPNQCIIRAK | 4.95 ± 0.074
YQPRAYGKSPSIQFGQIVKQ | 0.106 ± 0.31
ISGLETYLRSYWICIWSMWA | 3.02 ± 0.15
RLSEVTKDYVGTCNLDRLS | -0.157 ± 0.29
LRWDGEDWRWDALWVTSSVC | 0.512 ± 0.2
SDFVEKLLWFSY | 0.039 ± 0.77
RVYEVFGQKATGQMARRSVG | 1.78 ± 0.34
ATDADGRLISY | 1.31 ± 0.25
EACRLYHRVVKAFGEARCSV | 0.518 ± 0.28
SHSVRTMFPGGVNPRNIRGY | 0.548 ± 0.64
LAGLALITIIDIFGDNGRMI | 3.2 ± 0.082
NGVSMESRFQFSDWWNPTYY | -0.847 ± 0.64
KGLAREVRCSQYTTVIFVDR | 5.273 ± 0.043
SILYVSRLTFR | 0.218 ± 1.1
LYKVYVFYNNNVVMVRLALK | inactive
ITIRCGSKDSFMNIGLGKMG | 4.09 ± 0.11
CSFCRPFVTCILIRSKVCGW | 1.21 ± 0.11
VAKYLHYMSWVWRFMAWSYV | -1.15 ± 1
GIVFVLLLMNVFEVCRSELM | inactive
RINMPTYLLNWFSCHNYRFS | 3.98 ± 0.093
KHFRREW | 1.35 ± 0.41
YYMRRVSGLDISGRMCCKSV | 0.106 ± 0.42

Substance | amyloid nucleation score
PMMYQRLCIMFFCSTITLMI | 1.92 ± 0.14
SFSVLLADGQYRCYLLDSVL | -0.516 ± 0.48
DVREFSSDYSQVGVEVLVFL | 0.373 ± 0.42
DEGVPSGYVTAL | -0.354 ± 0.76
ISLHILCCRSMF | 8.618 ± 0.079
INVFSYSL | 2.58 ± 0.089
RRWDHRIHGILSISDIIFLR | inactive
YSMRWFVGGFILGYCVCGQV | 6.256 ± 0.037
EGSNYYTMVV | inactive
VRKRNVFFSSSFSSQRSGNC | -0.327 ± 0.63
TNGYSVRLYKGSCVILIGL | 5.12 ± 0.092
RGWCLDRPQYNVFRAMSRSL | 0.066 ± 1
AVPAVRVNGLHIRNCGYTGP | 1.22 ± 0.2
WYVLAWDPPLSFMCLGDV | 0.666 ± 0.53
RNSPSRKNL | -0.415 ± 0.36
EITFLCSGKSDSDMYVGFAS | 2.08 ± 0.072
ILFVLWKLDRRPCSLLEYTQ | 0.463 ± 0.56
RVRWYSCLVFMISTGFAFL | -0.702 ± 0.76
IVGNGRMCLRELSRFCFVRC | 1.04 ± 0.28
QWNMRAAQCTTNS | 0.722 ± 0.34
CFVVRE | 0.404 ± 0.46
NQNVSLGVTMCFNSNYDRQG | 7.53 ± 0.081
CFGRGLCVSIGVVRCTGGPC | 0.119 ± 0.62
EARILIKLLI | 2.58 ± 0.091
NQLRVLMTFFWPGMLNTPAV | -0.089 ± 1.1
CCWVSLMRGNRLSTDSSNTL | -0.087 ± 0.37

Substance | amyloid nucleation score
DLSVLDLGVLFINRFTRTLE | inactive
VVSRVECALAWVRNDIEALT | 0.343 ± 0.8
VIMMSNNSERYYVEQIFVSG | 0.09 ± 0.41
GTIYLFRWSFMWRFWMGTGL | -0.644 ± 0.54
VLDSAYCAFVYFFIVVIWWF | -0.595 ± 0.61
AWRYWFHTLSLTLKNWTSVF | 5.14 ± 0.087
YQSPCVTVVSGKRALPRGGR | -0.001 ± 0.28
VLNGRTEWTKQVDFIYFITD | -0.464 ± 1.1
FLFLCGTDTFASRNPGRGKG | 0.269 ± 0.51
RTSTYLCMAVNKGVFVSNSV | -0.576 ± 0.64
PSLMHSHLESNNTSA | -0.21 ± 0.44
SYPYFMLRTTLNTLKTWFWM | -0.403 ± 1
SCLLYCYSNSWFFIFNQR | -0.979 ± 1
RKILVKMNYFMRHLMNCVTE | inactive
CSEVQNLFNM | inactive
HLLPWMRVLYTYVCSNIQMF | -0.45 ± 0.36
TIGFLFLVNWPSWNFLEEVF | inactive
LCFQVVMPWNNISLSFLWLG | 0.759 ± 0.52
VSNLTQVAEVRQSNGGVFCG | 0.189 ± 0.39
KNINWILNAGSMLVSFYRPW | 7.328 ± 0.065
WTDAKALGGLSLLIRWSLEE | 4.13 ± 0.087
VGAMLKWLT | 0.378 ± 0.23
DLCQSHLPCHMRRTSFRQLP | 0.606 ± 0.36
SLSFIGQIQSIITNRLNSGV | 5.876 ± 0.039
NSSPTSFLLIMSLNCCICVN | 8.228 ± 0.024
IRFGLVWRLKLGFMLGLNSA | 4.98 ± 0.095

Substance | amyloid nucleation score
VRYGDRSGGLYLKRYFMLSF | inactive
AWKAVY | -0.585 ± 0.63
IFLKWLYKSFDYNI | 0.973 ± 0.23
HCNLPDWVHGIYMSKS | 0.127 ± 0.74
RMSIICFALKYILYRWMFRL | 0.988 ± 0.74
GFGNFVINDWSLR | -1.56 ± 1.1
IKDLSRGCFSFYW | 1.37 ± 0.17
RALLW | -0.094 ± 1
YPSLNDACQP | -0.394 ± 1.1
GFKVF | -0.937 ± 0.31
LVYESSDYFVNIIEDNLLVS | inactive
TQNTTYNAYMNLKE | -1.24 ± 1.1
SYYINFISVRILDLNKFNVQ | 5.03 ± 0.11
RTMFNLHADCERNLFWFGGW | 5.13 ± 0.065
HSSEIL | -0.006 ± 0.65
FRRQSPNMQPSCWTDHGLRG | -0.105 ± 1.1
LFECMPYGLNAKDSCADSNV | -0.303 ± 0.5
KLKRHL | -0.3 ± 0.24
SGIGY | 0.561 ± 0.62
YRVFMVPTWGGS | 0.381 ± 0.56
LYGIVITTLSSYCGGFLNSR | inactive
VTGTYFLVLITCA | 4.27 ± 0.065
FVYQCMCFNADLCFKFRLCS | 7.883 ± 0.065
NIYLFMLMWDWTSYMALCCV | 3.94 ± 0.081
LTSSA | -0.315 ± 0.49
VSMGNGARH | 0.194 ± 0.2

Substance | amyloid nucleation score
NWPETT | 2.48 ± 0.19
ACFWSVIVHTMKRTVQPQPK | 3.6 ± 0.09
TLCMRLN | 1.64 ± 0.086
NWSVILYIRACTASNIEWLS | 1.52 ± 0.44
NCIFDMLLVLR | inactive
ESISTVITLRGLMLITTGYN | 4.12 ± 0.097
VCFCQAFYGTRYHKCLVGLF | inactive
WSVDYDGCLCS | -0.094 ± 0.45
WFDIKL | -0.367 ± 0.48
CMYNRLLLLGALFVTPQWVR | 0.079 ± 0.5
SVIASWKSCLSLLVFQH | -0.695 ± 0.64
SEFRHGSYYSGVTEVRFWVQ | 2.26 ± 0.11
LNLSWVCSLGRYFVGGYISF | -1.29 ± 0.63
RSRRRHRLDVGSWRWCCGES | 4.08 ± 0.052
NTNRVVWVVLAMKI | 0.086 ± 0.77
RLCWLEGVIVYRIFGGKLGV | -1.33 ± 0.44
TGYVE | 0.293 ± 0.26
TDYQSVVDTVG | 0.019 ± 0.32
TNLYNDIGDRMFSSNWSTPV | -0.02 ± 1.1
FCKHFYVLREHIKWADSFLM | inactive
YLYGCGNMVVIWRSGRQMDI | -1.42 ± 0.49
EVYYTSMERCGG | 1.36 ± 0.22
